The source of these data is patent US20220227830A1, “QD DOSING OF GIP RECEPTOR AGONIST PEPTIDE COMPOUNDS AND USES THEREOF” (Takeda Pharmaceutical Company Limited, priority 2020, published 2022).

The target of test [1] is full-length human GLP-1R with an N-terminal FLAG tag, overexpressed on HEK-293T cells (human, UniProt P43220 24-463). Description: cell-based or functional assay.
Test [2] has as its target T1, full-length human GIPR with an N-terminal FLAG tag, overexpressed on HEK-293T cells (human, UniProt P48546 22-466).
T1 sequence (looked up): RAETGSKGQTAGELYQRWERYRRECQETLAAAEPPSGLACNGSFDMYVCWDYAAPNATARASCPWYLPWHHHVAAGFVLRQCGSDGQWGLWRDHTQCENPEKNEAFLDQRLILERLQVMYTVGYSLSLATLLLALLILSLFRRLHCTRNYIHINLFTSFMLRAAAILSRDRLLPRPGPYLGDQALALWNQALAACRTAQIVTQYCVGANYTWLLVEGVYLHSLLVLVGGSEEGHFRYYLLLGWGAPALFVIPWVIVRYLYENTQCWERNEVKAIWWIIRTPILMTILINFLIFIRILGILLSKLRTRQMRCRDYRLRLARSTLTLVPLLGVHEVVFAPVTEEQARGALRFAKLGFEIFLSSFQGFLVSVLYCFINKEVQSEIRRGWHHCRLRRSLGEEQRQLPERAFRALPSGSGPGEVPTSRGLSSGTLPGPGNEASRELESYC
In words: cell-based or functional assay.

Starred links: 1 amine or outer side, 2 acyl side, 3 side chain; linkers in the order of their positions; H or OH if unused. Non-standard residues stand in square brackets, D forms with d. Groups on a side chain read outwards from the residue. No end group written: not given here. *: point of attachment. C16 diacid = O=C(O)CCCCCCCCCCCCCCC(=O)*; C15 diacid = O=C(O)CCCCCCCCCCCCCC(=O)*; γGlu = O=C(O)[C@H](CCC(=O)[*:2])N[*:1]; NMeY = CN[C@@H](Cc1ccc(O)cc1)C(=O)O; Palmitoyl = CCCCCCCCCCCCCCCC(=O)*; AEEA = NCCOCCOCC(=O)O; Aib = CC(C)(N)C(=O)O; C16 = lipid C16 Where only a bound is given, the exact number is not on record here.

B1: Compound 211 (peptide)
peptide: Me-Y[Aib]EGTFISDYSIALDR[Aib]AQ[Aib]K([2OEG-γGlu-γGlu-C15 diacid])FVNWLLAQRG-OH
As for B1, the “Human GLP1R cAMP HEK293T EC50” value in test [1] amounted to 174 nM. For the same molecule, the “Human GIPR cAMP, HEK293T EC50” value in test [2] is 0.0002 nM.

B2: Compound 212 (peptide)
peptide: Me-Y[Aib]EGTFISDYSIALDR[Aib]AQ[Aib]KFVNWLLAQKG-OH
modifications: not fully specified (residues 1, 21)
For B2, the “Human GLP1R cAMP HEK293T EC50” value in test [1] came out at 66.1 nM. Besides, the “Human GIPR cAMP, HEK293T EC50” value in test [2] was 0.0002 nM.

B3: Compound 185 (peptide)
peptide: Me-Y[Aib]EGTFISDYSI[Aib]LDR[Aib]KQ[Aib]DFVNWLLAQSPG-OH
modifications: not fully specified (residues 1, 18); printed as Me-Tyr-Aib-Glu-Gly-Thr-Phe-Ile-Ser-Asp-Tyr-Ser-Ile-Aib-Leu-Asp-Arg-Aib-Lys(R)-Gln-Aib-Asp-Phe-Val-Asn-Trp-Leu-Leu-Ala-Gln-Ser-Pro-Gly-OH
As for B3, the “Human GLP1R cAMP HEK293T EC50” value in test [1] is more than 1000 nM. Besides, the “Human GIPR cAMP, HEK293T EC50” value in test [2] worked out at 0.0004 nM.

B4: Compound 218 (peptide)
peptide: Me-Y[Aib]EGTFISDYSIALDR[Aib]AQ[Aib]K([2OEG-C15 diacid])FVNWLLAQKG-OH
B4: the “Human GLP1R cAMP HEK293T EC50” value in test [1] was 89.1 nM. In addition, the “Human GIPR cAMP, HEK293T EC50” value in test [2] was found to be 0.0006 nM.

B5: Compound 206 (peptide)
peptide: Me-YGEGTFISDYSIALDR[Aib]AQ[Aib]K([2OEG-γGlu-γGlu-C15 diacid])FVNWLLAQKG-OH
As for B5, in test [1], the “Human GLP1R cAMP HEK293T EC50” value came to 145 nM. Besides, the “Human GIPR cAMP, HEK293T EC50” value in test [2] turned out to be 0.0013 nM.

B6: Compound 192 (peptide)
peptide: YGEGTFISDYSIAK([AEEA-AEEA-γGlu-C16 diacid])DRIHQQNFVNWLLAQK
As for B6, the “Human GLP1R cAMP HEK293T EC50” value in test [1] came to 741 nM. Also, the “Human GIPR cAMP, HEK293T EC50” value in test [2] stood at 0.148 nM.

B7: Compound 201 (peptide)
peptide: Me-Y[Aib]EGTFISDYSIALDR[Aib]AQ[Aib]K([2OEG-γGlu-γGlu-γGlu-C15 diacid])FVNWLLAQKG-OH
On to B7, for which, in test [1], the “Human GLP1R cAMP HEK293T EC50” value amounted to 9.12 nM. The “Human GIPR cAMP, HEK293T EC50” value in test [2] was 0.0002 nM.

B8: Compound 203 (peptide)
peptide: [NMeY][Aib]EGTFISDYSI[Aib]LDR[Aib]AQ[Aib]K([AEEA-AEEA-γGlu-γGlu-Palmitoyl])FVNWLLAQRG-OH
modifications: not fully specified (N-terminus)
As to B8, the “Human GLP1R cAMP HEK293T EC50” value in test [1] was determined as 2.63 nM. Moreover, the “Human GIPR cAMP, HEK293T EC50” value in test [2] came out at 0.003 nM.

B9: Compound 205 (peptide)
peptide: Me-Y[Aib]EGTFISDYSIALDR[Aib]AQ[Aib]K([2OEG-γGlu-γGlu-C15 diacid])FVNWLLAQKG-NH2
Turning to B9, the “Human GLP1R cAMP HEK293T EC50” value in test [1] was 13.5 nM. Also, the “Human GIPR cAMP, HEK293T EC50” value in test [2] was 0.0002 nM.

B10: Compound 186 (peptide)
peptide: YXEGTFISDYSIXLDRXAQXDFVNWLLAQSPG
modifications: N-terminal Me (Me-Tyr1); Aib at 2, 13, 20; Km = Lys(R) at 17, linker printed GS (read as G5 = GGGGG), lipid C15DA (C15 diacid); C-terminal OH
With B10, the “Human GLP1R cAMP HEK293T EC50” value in test [1] was 26.9 nM. Further, the “Human GIPR cAMP, HEK293T EC50” value in test [2] amounted to 0.0003 nM.

B11: Compound 188 (peptide)
peptide: Y[Aib]EGTFISDYSIALDR[Aib]AQ[Aib]K([AEEA-AEEA-γGlu-γGlu-C15 diacid])FVNWLLAQKG-OH
modifications: not fully specified (residue 1)
On to B11, for which, in test [1], the “Human GLP1R cAMP HEK293T EC50” value was 22.9 nM. Besides, in test [2], the “Human GIPR cAMP, HEK293T EC50” value amounted to 0.0003 nM.

B12: Compound 209 (peptide)
peptide: Me-Y[Aib]EGTFISDYSIALDR[Aib]AQ[Aib]K([2OEG-γGlu-γGlu-C15 diacid])FVNWLLAQKPSSGAPPPS-NH2
Regarding B12, in test [1], the “Human GLP1R cAMP HEK293T EC50” value was 479 nM. Further, in test [2], the “Human GIPR cAMP, HEK293T EC50” value was 0.0003 nM.

B13: Compound 215 (peptide)
peptide: Me-Y[Aib]EGTFISDYSIALDR[Aib]AQ[Aib]K([G5gEgE-C15 diacid])FVNWLLAQKG-OH
For the molecule B13, the “Human GLP1R cAMP HEK293T EC50” value in test [1] worked out at 45.7 nM. Moreover, in test [2], the “Human GIPR cAMP, HEK293T EC50” value worked out at 0.0002 nM.

B14: Compound 213 (peptide)
peptide: Me-Y[Aib]EGTFISDYSIALDR[Aib]AQ[Aib]K([2OEG-γGlu-C15 diacid])FVNWLLAQKG-OH
As for B14, the “Human GLP1R cAMP HEK293T EC50” value in test [1] turned out to be 17 nM. Further, the “Human GIPR cAMP, HEK293T EC50” value in test [2] amounted to 0.0003 nM.

B15: Compound 196 (peptide)
peptide: Me-Y[Aib]EGTFISDYSIAK([AEEA-AEEA-γGlu-C16 diacid])DRIAQ[Aib]NFVNWLLAQK
As for B15, in test [1], the “Human GLP1R cAMP HEK293T EC50” value amounted to 692 nM. In addition, the “Human GIPR cAMP, HEK293T EC50” value in test [2] was 0.0002 nM.

B16: Compound 217 (peptide)
peptide: Me-YAEGTFISDYSIALDR[Aib]AQ[Aib]K([2OEG-γGlu-γGlu-C15 diacid])FVNWLLAQKG-OH
B16: the “Human GLP1R cAMP HEK293T EC50” value in test [1] was 4.9 nM. Also, the “Human GIPR cAMP, HEK293T EC50” value in test [2] amounted to 0.0002 nM.

B17: Compound 210 (peptide)
peptide: Me-Y[Aib]EGTFISDYSIALDR[Aib]AQ[Aib]K([2OEG-γGlu-γGlu-C15 diacid])FVNWLLAQK-NH2
For the molecule B17, the “Human GLP1R cAMP HEK293T EC50” value in test [1] was 129 nM. For the same molecule, the “Human GIPR cAMP, HEK293T EC50” value in test [2] worked out at 0.0003 nM.

B18: Compound 216 (peptide)
peptide: Me-Y[dA]EGTFISDYSIALDR[Aib]AQ[Aib]K([2OEG-γGlu-γGlu-C15 diacid])FVNWLLAQKG-OH
Turning to B18, the “Human GLP1R cAMP HEK293T EC50” value in test [1] was determined as 34.7 nM. In test [2], the “Human GIPR cAMP, HEK293T EC50” value came to 0.0003 nM.

B19: Compound 187 (peptide)
peptide: YXEGTFISDYSIXXDRXAQXNFVNWLLAQSPSSGAPPPS
modifications: N-terminal Me (Me-Tyr1); Aib at 2, 13, 17, 20; Km = Lys(R) at 14, linker printed GS (read as G5 = GGGGG), lipid C15DA (C15 diacid); C-terminal OH
For the molecule B19, the “Human GLP1R cAMP HEK293T EC50” value in test [1] stood at 51.3 nM. Further, the “Human GIPR cAMP, HEK293T EC50” value in test [2] is 0.0002 nM.

B20: Compound 190 (peptide)
peptide: Me-Y[Aib]EGTFISDYSIALDR[Aib]HQ[Aib]NFVNWK([γGlu-C16])LAQR-NH2
On to B20, for which, in test [1], the “Human GLP1R cAMP HEK293T EC50” value amounted to 1000 nM. In addition, the “Human GIPR cAMP, HEK293T EC50” value in test [2] was found to be 0.0158 nM.
